{"source": "paper doi:10.1101/2025.11.05.686565", "about": "(bioRxiv, 2025)", "proteins": {"B1": {"name": "full-length, strep-tagged human Wdr37 (natural protein, UniProt Q9Y2I8 1-494, looked up)", "chain": "MPTESASCSTARQTKQKRKSHSLSIRRTNSSEQERTGLPRDMLEGQDSKLPSSVRSTLLELFGQIEREFENLYIENLELRREIDTLNERLAAEGQAIDGAELSKGQLKTKASHSTSQLSQKLKTTYKASTSKIVSSFKTTTSRAACQLVKEYIGHRDGIWDVSVAKTQPVVLGTASADHTALLWSIETGKCLVKYAGHVGSVNSIKFHPSEQLALTASGDQTAHIWRYAVQLPTPQPVADTSISGEDEVECSDKDEPDLDGDVSSDCPTIRVPLTSLKSHQGVVIASDWLVGGKQAVTASWDRTANLYDVETSELVHSLTGHDQELTHCCTHPTQRLVVTSSRDTTFRLWDFRDPSIHSVNVFQGHTDTVTSAVFTVGDNVVSGSDDRTVKVWDLKNMRSPIATIRTDSAINRINVCVGQKIIALPHDNRQVRLFDMSGVRLARLPRSSRQGHRRMVCCSAWSEDHPVCNLFTCGFDRQAIGWNINIPALLQEK"}}, "biological_target": "the molecule itself", "assay": "cryo-EM structure"}
{"protein": "B1", "values": [{"measurement": "stoichiometry N", "value": 2}]}
